B1: Rasip1 RA domain (residues 134-285) (domain or fragment, human, UniProt Q5U651 134-285, looked up)
chain: EPPLATRATAPPGVLKIFGAGLASGANYKSVLATARSTARELVAEALERYGLAGSPGGGPGESSCVDAFALCDALGRPAAAGVGSGEWRAEHLRVLGDSERPLLVQELWRARPGWARRFELRGREEARRLEQEAFGAADSEGTGAPSWRPQK
B2: Radil RA domain (residues 51-193) (domain or fragment, human, UniProt Q96JH8 51-193, looked up)
chain: DPAELSTQLSAPGVLKVFGDSVCTGTHYKSVLATGTSSARELVKEALERYALDPRQAGQYVLCDVVGQAGDAGQRWQARCFRVFGDSEKPLLIQELWKPREGLSRRFELRKRSDVEELAAKEVDTITAGINAQARRLQRSRAK
B3: Rap1B (residues 1-167), GMP-PNP bound (domain or fragment, human, UniProt P61224 1-167, looked up)
chain: MREYKLVVLGSGGVGKSALTVQFVQGIFVEKYDPTIEDSYRKQVEVDAQQCMLEILDTAGTEQFTAMRDLYMKNGQGFALVYSITAQSTFNDLQDLREQILRVKDTDDVPMILVGNKCDLEDERVVGKEQGQNLARQWNNCAFLESSAKSKINVNEIFYDLVRQINR
B4: trypsin-treated Rasip1 RA domain (domain or fragment, human, UniProt Q5U651 141-285, looked up)
chain: ATAPPGVLKIFGAGLASGANYKSVLATARSTARELVAEALERYGLAGSPGGGPGESSCVDAFALCDALGRPAAAGVGSGEWRAEHLRVLGDSERPLLVQELWRARPGWARRFELRGREEARRLEQEAFGAADSEGTGAPSWRPQK

For series [1], the target named is B3. Nature of the series: ITC. A general note: In ITC the heat of successive injections is recorded.
The target in series [2] is HRas (residues 1-189), GMP-PNP bound (human, UniProt P01112 1-189). Nature of the series: ITC.
The series “NMR linewidths” deals with the molecule itself. The experiment in a line: NMR linewidths.
Series [3] deals with B3. Nature of the series: ITC. The source holds these as a separate data set.
For series [4], the target named is B2. The experiment in a line: ITC.
The target in series [5] is B1. Nature of the series: ITC.
The series “crystal structure” deals with the molecule itself. The experiment in a line: crystal structure.
The target of series [6] is B3. Nature of the series: crystal structure.

Where two headings read alike, the source gives them in different places.

Sequence of HRas (residues 1-189), GMP-PNP bound (P01112 whole entry, the tested form may be a part): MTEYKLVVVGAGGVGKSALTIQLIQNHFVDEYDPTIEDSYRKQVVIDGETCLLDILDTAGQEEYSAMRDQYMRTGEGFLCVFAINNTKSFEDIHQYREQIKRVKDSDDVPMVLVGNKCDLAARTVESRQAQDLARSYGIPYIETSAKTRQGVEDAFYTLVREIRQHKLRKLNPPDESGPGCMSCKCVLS

As usually defined, the Kd is the concentration at which binding is half-saturated. In the case of B1, the equilibrium dissociation constant (Kd) in series [1] amounted to 900 nM; in series [2], 2.2 µM; in series [3], 770 ± 90 nM. In the series “NMR linewidths”, the binding result is reported as “binds”.
As for B2, the Kd came to 1200 nM in series [1] and 3.9 µM in series [2].
One may read the stoichiometry N as a count of units in the complex or per binding partner. With B3, in series [4], the dH was -6500 cal/mol and the “stoichiometry N” value is 1.04. For the same molecule, in series [5], the dH was -3400 cal/mol and the “stoichiometry N” value was 1.22.
B4: the binding result (in the series “crystal structure”; in series [6]) was “binds” each time.

The values are drawn from paper PMC5143164 (Structure (London, England : 1993), 2016).
